How the values were obtained:
[1] = molecular target: T1, N-terminally His6-tagged human IDO1 (indoleamine 2,3-dioxygenase 1), purified apo-IDO1 (human, UniProt P14902 1-403, Alexa Fluor 488 on Cys groups (in the fluorescence polarisation assay only)); test: cross-linking; proteins bound to each other at RT for 30 min, then 100-fold excess of DSSO for 15 min at RT; 50 mM HEPES pH 7.4, 100 mM NaCl; trypsin digest and MS-cleavable XL-MS; details: both partners purified
T1 construct: human indoleamine 2,3-dioxygenase 1, cloned in the pHis-parallel1 vector; About 0.1 mol residual heme per mol protein; no effort was made to remove it; also called His6-IDO1; wild-type purified IDO1; source: E. coli BL21 (DE3), purified (Ni-NTA)

[2] = molecular target: FLAG-tagged IDO1 K101D expressed in HEK293T cells (human, UniProt P14902 1-403, K101D); test: cell-based or functional assay
[3] = molecular target: FLAG-tagged IDO1 K101A expressed in HEK293T cells (human, UniProt P14902 1-403, K101A); test: cell-based or functional assay
Sequence of FLAG-tagged IDO1 K101A expressed in HEK293T cells (P14902 whole entry K101A): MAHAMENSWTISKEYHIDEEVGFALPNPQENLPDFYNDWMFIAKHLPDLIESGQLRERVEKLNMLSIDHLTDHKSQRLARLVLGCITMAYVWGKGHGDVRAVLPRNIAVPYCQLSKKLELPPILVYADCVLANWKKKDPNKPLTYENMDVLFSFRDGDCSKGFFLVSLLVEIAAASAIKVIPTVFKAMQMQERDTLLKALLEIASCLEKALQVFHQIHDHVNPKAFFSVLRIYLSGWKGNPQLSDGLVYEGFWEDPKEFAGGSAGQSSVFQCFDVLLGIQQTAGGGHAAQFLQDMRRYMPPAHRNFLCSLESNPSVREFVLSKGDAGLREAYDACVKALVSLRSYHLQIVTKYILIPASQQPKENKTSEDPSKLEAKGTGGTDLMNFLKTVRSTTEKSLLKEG

Sequence of FLAG-tagged IDO1 K101D expressed in HEK293T cells (P14902 whole entry K101D): as the sequence (P14902 whole entry K101A) above, with A101D counted along it
T1 sequence (P14902 whole entry): as the sequence (P14902 whole entry K101A) above, with A101K counted along it

Row | Binder | binding result [1] | 14C heme counts in the IDO1 immunoprecipitates, relative to wild-type IDO1 [2] [% decrease] | IDO1 catalytic activity of cell supernatants, relative to wild type [2] [% reduced] | L-Kyn buildup in the culture medium over a 5 h period, relative to wild-type IDO1 [2] [% less] | 14C heme counts in the IDO1 immunoprecipitates, relative to wild-type IDO1 [3] [% decrease] | IDO1 catalytic activity of cell supernatants, relative to wild type [3] [% reduced] | L-Kyn buildup in the culture medium over a 5 h period, relative to wild-type IDO1 [3] [% less]
1 | rabbit GAPDH protein (Sigma #G2267) (enzyme, rabbit glyceraldehyde 3-phosphate dehydrogenase; MS data were searched against P46406; The printed cross-linked residues K334 and K215 fit human GAPDH P04406; also called glyceraldehyde 3-phosphate dehydrogenase; source: bought: Sigma #G2267) not shown | binds | – | – | – | – | – | –
2 | GAPDH of HEK293T cells (native) (enzyme) not shown | – | 68 | 65 | ~60 | 68 | 65 | ~60

— PMC12329532, “GAPDH heme delivery to Indoleamine 2,3-dioxygenase 1 involves their complex formation and complementary charge pairing at the protein-protein interface” (The Journal of Biological Chemistry, 2025)
